Reference: patent publication US20230181640A1 (SHANGHAI ABELZETA, published 2023)
Changes are numbered by the printed parent chain.

T1: hBCMA-ECD-Fc (fusion protein of human BCMA extracellular domain Met1-Ala54 and human IgG1 Fc fragment … (human, UniProt Q02223 1-54))
T1 construct: range 1-54; also the immunogen; also called soluble extracellular domain of human BCMA; not shown: human IgG1 Fc fragment, Pro100-Lys330
T1 sequence (looked up): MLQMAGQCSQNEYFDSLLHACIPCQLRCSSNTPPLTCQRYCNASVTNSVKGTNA

T2: Recombinant human TACI/TNFRSF13B Fc chimeric protein, CF (hTACI-ECD-Fc) (human, UniProt O14836 1-165)
T2 construct: extracellular domain; bought reagent; not shown: Fc part of the bought chimera is not described
T2 sequence (looked up): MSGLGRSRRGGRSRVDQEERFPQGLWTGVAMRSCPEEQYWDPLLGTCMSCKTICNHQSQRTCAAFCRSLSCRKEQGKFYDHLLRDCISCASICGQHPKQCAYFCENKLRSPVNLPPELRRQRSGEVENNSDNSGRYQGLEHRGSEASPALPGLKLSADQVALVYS

T3: human BCMA on cells (L-BCMA+, K562-BCMA+, A549-BCMA-1D6) (human, UniProt Q02223 1-184)
T3 construct: whole, on cells; the cell line of each assay is named under assay; also called L-BCMA-1E6-A4; K562-BCMA-B22D8
T3 sequence (looked up): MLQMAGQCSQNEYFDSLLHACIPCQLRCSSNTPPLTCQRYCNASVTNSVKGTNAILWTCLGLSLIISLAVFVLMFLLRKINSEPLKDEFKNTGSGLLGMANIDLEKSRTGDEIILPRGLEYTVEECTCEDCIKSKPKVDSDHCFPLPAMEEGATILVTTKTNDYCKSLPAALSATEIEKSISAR

B1: hybridoma antibody 109C5F3C1 (mAb010) (antibody, V domains shown)
VH: EVQLQQSGPVLVKPGASVKMSCKVSGYTFTDYYMNWVKQSHGKSLEWIGVITPYNGANRYNQKFKGKATLTVDKSSSTAYMEVSSLTSEDSAVYYCARGDSIYVMDYWGQGTSVIVSS
VL: not shown
notes: murine; re-named CP06; also called CP06
B2: hybridoma antibody 102A12H6 (mAb003) (antibody, IgG1, V domains shown)
VH: EVQLQQSGPELVKPGASVKISCKASGYSFTGYYMNWVKQSPEKSLEWIGEINSSTGGTTYNQKFKAKATMTVDKSSNTAYMELKSLTSEDSAVYYCRYYGSDWHFDVWGTGTTVTVSS
VL: QIVLTQSPALMSASPGEKVTMTCSASSSVSYMYWYQQKPRSSPKPWIYLTSSLASGVPARFSGSGSGTSYSLTISTMEAEDAATYYCQQWSSDPLTFGAGTKLELK
notes: murine hybridoma antibody, IgG1,κ
B3: hybridoma antibody 99B3G3 (mAb002) (antibody, IgG1, V domains shown)
VH: EVQLQQSGPVLVKPGASVKMSCKASGYTFTDLYMNWVKQSHGKSLEWIGVINPYNGGTSYNQKFKAKATLTVDKSSITAYMELNSLTSEDSAVYYCARGDSIYVMDYWGQGTSVTVSS
VL: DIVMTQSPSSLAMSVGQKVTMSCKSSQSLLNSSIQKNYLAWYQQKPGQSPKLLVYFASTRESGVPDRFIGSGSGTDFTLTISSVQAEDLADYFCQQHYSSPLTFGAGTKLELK
notes: murine hybridoma antibody, IgG1,κ; re-named CP02; also called CP02
B4: hybridoma antibody 100H2D12C6 (mAb009) (antibody, IgG1, V domains shown)
VH: B3 VH
VL: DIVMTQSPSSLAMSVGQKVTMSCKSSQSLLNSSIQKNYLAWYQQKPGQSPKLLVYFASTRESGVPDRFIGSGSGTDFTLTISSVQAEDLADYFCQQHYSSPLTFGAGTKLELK
notes: murine, IgG1,κ
B5: hybridoma antibody 151A9A4 (mAb012) (antibody, IgG2b, V domains shown)
VH: B3 VH with L32Y, Y33S, M34L, I51V, S59T, A66G, I77S, G99P, Y107S
VL: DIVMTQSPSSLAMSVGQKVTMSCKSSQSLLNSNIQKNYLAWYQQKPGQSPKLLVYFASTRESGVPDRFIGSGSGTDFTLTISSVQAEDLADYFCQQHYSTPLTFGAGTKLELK
notes: murine, IgG2b,κ; re-named CP08; also called CP08
B6: hybridoma antibody 143D6F4 (mAb011) (antibody, IgG2b, V domains shown)
VH: B3 VH with L32Y, Y33S, M34L, I51V, Y60H, A66G, I77S, G99P
VL: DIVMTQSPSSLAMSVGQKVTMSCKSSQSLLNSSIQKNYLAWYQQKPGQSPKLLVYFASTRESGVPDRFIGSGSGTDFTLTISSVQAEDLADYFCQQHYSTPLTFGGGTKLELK
notes: murine, IgG2b,κ; re-named CP07; also called CP07
B7: hybridoma antibody 105C10F1 (mAb004) (antibody, IgG2b, V domains shown)
VH: EVKLLQSGGGLVQPGGSLKLSCAASGIDFSRYWMSWVRRAPGKGLEWIGEINPDSSTINYAPSLKDKFIISRDAAKNTLYLQMSKVRSEDTALYYCATLYYDYDGDYAMDYWGQGTSVTVSS
VL: DIVMTPSQKFMSTSVGDRVSVTCKASQNVGTNVAWYQQKPGQSPKALIYSASYRYSGVPDRFTGSGSGTDFTLTISNVQSEDLAEYFCQHYNSYPFTFGSGTKLEIK
notes: murine hybridoma antibody, IgG2b,κ; re-named CP03; also called CP03
B8: hybridoma antibody 6G10-1D7 (mAb001) (antibody, IgG1, V domains shown)
VH: EVQLQQSGPELVKPGASMKISCKASDYSFTDYIMTWVKQSHGKNLEWIGLINPYNGGTTYNQKFKDKATFTVDKSSTTAYMDLLSLTSEDSAVYYCARRGITTDYYTMDYWGQGTSVTVSS
VL: DIVMTQSQRFMSTSVGDRVSITCKASQSVGTAVAWYQQTPGQFPKLLIYSTSNRYTGVPDRFTGSGSGTDFTLTISNMQSEDLADYFCQQYSTYPLTFGSGTKLELK
notes: tested as supernatant and purified; also called CP01
B9: hybridoma antibody 113B3F12 (mAb008) (antibody, IgG2b, V domains shown)
VH: EVQLQQSGPVLVKPGASVKMSCKASGYTFTDYYMNWVKQSHGKSLEWIGVINPYNGGTDYNQKFKGKATLTVDKSSSTAYMELNSLTSEDSAVYYCARRRESYGTSYQGAYFDSWGQGTTLTVSS
VL: DIQMTQTTSSLSASLGDRVTISCRASQDISNYLNWYQQKPDGTVKLLIYYTSRLHSGVPSRFSGSGSGTDYSLSISDLEQEDIATYFCQQVITLPWTFGGGTKLEIK
notes: murine hybridoma antibody, IgG2b,κ
B10: hybridoma antibody 152D8E8 (mAb013) (antibody, IgG1, V domains shown)
VH: QVTLKESGPGILQSSQTLSLTCSFSGFSLNTSGMGVNWIRQSSGKDLEWLAHIYWNDDKRYNPSLKSRLTISKDTSRNQVFLRITSVDATDTATYFCCRSRLSFDYWGHGTTLTVSS
VL: DIKMTQSPSSMYVSLGERVTITCKASQDINRNLSWFQQKPGKSPKTLIYRANRLVDGVPLRFSGSGSGQDYSLTISSLEYEDMGIYYCLQYDEFPRTFGGGTKLEIK
notes: murine, IgG1,κ; re-named CP09; also called CP09
B11: hybridoma clone 97B8G8D12 (antibody, V domains shown)
VH: B3 VH
VL: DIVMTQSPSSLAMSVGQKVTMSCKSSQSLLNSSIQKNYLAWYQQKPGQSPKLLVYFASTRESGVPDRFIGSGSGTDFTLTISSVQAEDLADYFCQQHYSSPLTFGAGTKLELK
notes: murine hybridoma supernatant; gave no antibody in small-batch production
B12: hybridoma clone 107A11F1B7 (antibody, V domains shown)
VH: B3 VH with V37L, S44R, A66G, I77S, E82D, V114F
VL: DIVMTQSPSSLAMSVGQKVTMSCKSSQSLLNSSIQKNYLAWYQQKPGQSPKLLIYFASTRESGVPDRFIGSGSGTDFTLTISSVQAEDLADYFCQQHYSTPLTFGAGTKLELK
notes: murine hybridoma supernatant; re-named CP04; also called CP04
B13: hybridoma clone 107A9A4D2 (antibody, V domains shown)
VH: B3 VH with V37L, S44R, A66G, I77S, E82D, V114F
VL: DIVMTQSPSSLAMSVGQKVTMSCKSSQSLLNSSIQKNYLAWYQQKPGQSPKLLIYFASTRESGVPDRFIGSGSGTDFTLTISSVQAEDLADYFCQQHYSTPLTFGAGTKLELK
notes: murine hybridoma supernatant
B14: chimeric antibody of hybridoma 105C10F1 (antibody, human IgG1, kappa, V domains shown)
VH: B7 VH
VL: DIVMTPSQKFMSTSVGDRVSVTCKASQNVGTNVAWYQQKPGQSPKALIYSASYRYSGVPDRFTGSGSGTDFTLTISNVQSEDLAEYFCQHYNSYPFTFGSGTKLEIKR
notes: IgG1,κ chimeric antibody, HEK 293T supernatant
B15: chimeric antibody of hybridoma 6G10-1D7 (antibody, human IgG1, kappa, V domains shown)
VH: B8 VH
VL: DIVMTQSQRFMSTSVGDRVSITCKASQSVGTAVAWYQQTPGQFPKLLIYSTSNRYTGVPDRFTGSGSGTDFTLTISNMQSEDLADYFCQQYSTYPLTFGSGTKLELKR
notes: as for B14
B16: chimeric antibody of hybridoma 99B3G3 (antibody, human IgG1, kappa, V domains shown)
VH: B3 VH
VL: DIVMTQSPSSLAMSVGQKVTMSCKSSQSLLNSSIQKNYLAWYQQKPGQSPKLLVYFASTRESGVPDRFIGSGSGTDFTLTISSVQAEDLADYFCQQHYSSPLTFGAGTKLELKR
notes: as for B14
B17: chimeric antibody 107A9A4D2VH/VL-2 (antibody, human IgG1, kappa, V domains shown)
VH: B3 VH with V37L, S44R, A66G, I77S, E82D, V114F
VL: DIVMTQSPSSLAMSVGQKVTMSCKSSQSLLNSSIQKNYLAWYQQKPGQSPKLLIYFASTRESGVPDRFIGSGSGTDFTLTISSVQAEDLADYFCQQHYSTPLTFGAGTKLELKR
notes: IgG1,κ chimeric antibody, HEK 293T supernatant; also called 107A9A4D2VH paired with 107A9A4D2VL-2
B18: chimeric antibody of hybridoma 113B3F12 (antibody, human IgG1, kappa, V domains shown)
VH: B9 VH
VL: DIQMTQTTSSLSASLGDRVTISCRASQDISNYLNWYQQKPDGTVKLLIYYTSRLHSGVPSRFSGSGSGTDYSLSISDLEQEDIATYFCQQVITLPWTFGGGTKLEIKR
notes: as for B14

target: T4, cynoBCMA-ECD-Fc (machin BCMA extracellular domain Fc fusion) (machin); experiment: ELISA, purified hybridoma antibody
T4 construct: extracellular domain; also called soluble extracellular domain of machin BCMA

Row | Binder | EC50 [nM]
1 | B1 | 0.18
2 | B2 | 0.062
3 | B3 | 0.23
4 | B4 | 0.033
5 | B5 | 0.15
6 | B6 | 0.17

target: T1, hBCMA-ECD-Fc (fusion protein of human …); experiment: ELISA, purified hybridoma antibody

Row | Binder | EC50 [nM]
7 | B1 | 0.18
8 | B2 | 0.058
9 | B7 | 0.038
10 | B8 | 0.034
11 | B3 | 0.032
12 | B4 | 0.033
13 | B5 | 0.17
14 | B6 | 0.15
15 | B9 | 0.15

target: T2, Recombinant human TACI/TNFRSF13B Fc …; experiment: ELISA, purified hybridoma antibody

Row | Binder | binding result
16 | B1 | no binding
17 | B10 | no binding
18 | B2 | no binding
19 | B7 | no binding
20 | B8 | no binding
21 | B3 | no binding
22 | B4 | no binding
23 | B5 | no binding
24 | B6 | no binding

target: T3, human BCMA on cells (L-BCMA+, …); experiment: FACS, hybridoma supernatant, BCMA+ cells; further: test concentration or dose not given here

Row | Binder | FACS (MFI)
25 | B1 | 2890
26 | B2 | 762
27 | B7 | 1960
28 | B8 | 3880
29 | B3 | 1930
30 | B4 | 1140
31 | B11 | 358
32 | B5 | 2920
33 | B12 | 5180
34 | B6 | 1510
35 | B13 | 4650
36 | B9 | 3890

target: T1, hBCMA-ECD-Fc (fusion protein of human …); experiment: ELISA, chimeric antibody supernatant; further: test concentration or dose not given here

Row | Binder | ELISA (OD450 nm) [OD450]
37 | B14 | 2.39
38 | B15 | 2.35
39 | B16 | 2.3
40 | B17 | 2.45
41 | B18 | 0.09

target: T3, human BCMA on cells (L-BCMA+, …); experiment: FACS, chimeric antibody supernatant, L-BCMA+ cells; further: test concentration or dose not given here

Row | Binder | FACS (MFI)
42 | B14 | 1800
43 | B15 | 3470
44 | B16 | 2180
45 | B17 | 525
46 | B18 | 37.5

target: T4, cynoBCMA-ECD-Fc (machin BCMA …); experiment: ELISA, hybridoma supernatant

Row | Binder | ELISA (OD450 nm) [OD450]
47 | B1 | 3.41
48 | B10 | 3.31
49 | B2 | 3.53
50 | B7 | 0.18
51 | B8 | 1.95
52 | B3 | 3.65
53 | B4 | 3.48
54 | B11 | 3.37
55 | B5 | 3.4
56 | B12 | 3.5
57 | B6 | 3.4
58 | B13 | 3.58
59 | B9 | 0.18

target: T1, hBCMA-ECD-Fc (fusion protein of human …); experiment: ELISA, hybridoma supernatant

Row | Binder | ELISA (OD450 nm) [OD450]
60 | B1 | 3.57
61 | B2 | 3.6
62 | B7 | 3.42
63 | B8 | 2.9
64 | B3 | 3.68
65 | B4 | 3.37
66 | B11 | 3.06
67 | B5 | 3.34
68 | B12 | 3.53
69 | B6 | 3.26
70 | B13 | 3.51
71 | B9 | 3.9

target: T5, Recombinant hFc fusion protein control (NC-Fc); experiment: ELISA, hybridoma supernatant
T5 construct: negative control antigen of the screens; also called NC-hFc

Row | Binder | ELISA (OD450 nm) [OD450]
72 | B1 | 0.57
73 | B10 | 0.23
74 | B2 | 0.12
75 | B7 | 0.1
76 | B8 | 0.08
77 | B3 | 0.14
78 | B4 | 0.13
79 | B11 | 0.13
80 | B5 | 0.24
81 | B6 | 0.2
82 | B9 | 0.14
